Publication doi:10.1101/2022.01.24.477625 (bioRxiv, 2022)

Biological target: SARS-CoV-1 spike protein (FL-GCN4-Avi-His, biotinylated) (SARS-CoV-1 (SARS-CoV), strain , UniProt P59594, stabilised, biotin on the Avi tag)
Test: BLI

B1: CV27 IgG (antibody, V domains shown)
VH: QVQLVESGGGVVQPGRSLRLSCAASGFTFSSYAMHWVRQAPGKGLEWVALISYDGSNKYYADSVKGRFTISRDNSKNTLYLQMNSLRAEDTAVYYCARSFGGSYYYGMDVWGQGTTVTVSS
VL: QSALTQPASVSGSPGQSITISCTGTSSDVGGYNYVSWYQQHPGKAPKLMIYDVSNRPSGVSNRFSGSKSGNTASLTISGLQAEDEADYYCSSYTSSSTPYVFGTGTKVTVL
B1: binds.
